In article PMC2475692:

Legend:
[1] = biological target: YFP-EF-preIQ-IQ-PCRD (CaV1.3 α1 C-terminal fragment, amino acids 1453–1664) (human); assay: FRET or BRET
[2] = biological target: YFP-EF-preIQ-IQ (CaV1.3 α1 C-terminal fragment, amino acids 1453–1623) (human) (UniProt Q01668); assay: FRET or BRET
Chain of YFP-EF-preIQ-IQ (CaV1.3 α1 C-terminal fragment, amino acids 1453–1623) (human) (Q01668 1468-1638): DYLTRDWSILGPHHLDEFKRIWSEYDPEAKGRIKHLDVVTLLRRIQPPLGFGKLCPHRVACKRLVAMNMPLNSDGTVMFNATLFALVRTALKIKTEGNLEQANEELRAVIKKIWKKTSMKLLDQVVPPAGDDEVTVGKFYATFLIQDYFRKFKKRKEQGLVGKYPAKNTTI

Chain of YFP-EF-preIQ-IQ-PCRD (CaV1.3 α1 C-terminal fragment, amino acids 1453–1664) (human) (Q01668 1453-1664): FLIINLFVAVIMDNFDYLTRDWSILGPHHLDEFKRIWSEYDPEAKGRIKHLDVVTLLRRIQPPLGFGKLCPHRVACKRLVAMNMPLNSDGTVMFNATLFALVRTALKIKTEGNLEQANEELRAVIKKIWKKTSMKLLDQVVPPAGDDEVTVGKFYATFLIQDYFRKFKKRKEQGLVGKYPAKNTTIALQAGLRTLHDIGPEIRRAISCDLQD

N FRET [1]: 0.235
N FRET [2]: 0.185
Substance: CFP-labeled calmodulin (from UniProt P0DP23 1-149) (natural protein)
